Test results published in publication doi:10.1101/2025.09.02.671137 (bioRxiv, 2025).

T1: Cdc13 (Saccharomyces cerevisiae, UniProt P32797 1-924)
T1 sequence: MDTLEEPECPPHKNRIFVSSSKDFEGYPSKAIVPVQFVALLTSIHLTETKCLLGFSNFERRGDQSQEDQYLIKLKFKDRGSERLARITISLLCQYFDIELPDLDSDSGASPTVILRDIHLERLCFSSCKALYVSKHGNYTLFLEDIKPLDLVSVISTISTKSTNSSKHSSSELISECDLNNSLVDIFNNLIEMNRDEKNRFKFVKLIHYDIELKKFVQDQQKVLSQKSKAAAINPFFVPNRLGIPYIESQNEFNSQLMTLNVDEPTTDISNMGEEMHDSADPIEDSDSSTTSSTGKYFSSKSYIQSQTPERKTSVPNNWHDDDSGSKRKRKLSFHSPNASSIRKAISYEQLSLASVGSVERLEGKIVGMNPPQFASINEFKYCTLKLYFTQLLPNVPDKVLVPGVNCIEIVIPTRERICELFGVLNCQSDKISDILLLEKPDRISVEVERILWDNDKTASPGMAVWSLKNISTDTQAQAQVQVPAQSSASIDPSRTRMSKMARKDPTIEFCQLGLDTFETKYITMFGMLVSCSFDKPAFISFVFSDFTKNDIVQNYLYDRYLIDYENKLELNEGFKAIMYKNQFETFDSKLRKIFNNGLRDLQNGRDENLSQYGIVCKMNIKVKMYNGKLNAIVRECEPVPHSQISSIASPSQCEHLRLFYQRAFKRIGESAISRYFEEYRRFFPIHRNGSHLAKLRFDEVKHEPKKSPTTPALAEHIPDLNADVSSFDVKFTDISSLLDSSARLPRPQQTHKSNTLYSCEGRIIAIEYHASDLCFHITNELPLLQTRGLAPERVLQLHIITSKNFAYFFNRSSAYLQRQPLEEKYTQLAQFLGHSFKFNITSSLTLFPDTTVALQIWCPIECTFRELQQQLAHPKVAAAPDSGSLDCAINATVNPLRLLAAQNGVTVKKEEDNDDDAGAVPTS

T2: Cdc13-K504E (Saccharomyces cerevisiae, UniProt P32797 1-924, K504E)
T2 sequence: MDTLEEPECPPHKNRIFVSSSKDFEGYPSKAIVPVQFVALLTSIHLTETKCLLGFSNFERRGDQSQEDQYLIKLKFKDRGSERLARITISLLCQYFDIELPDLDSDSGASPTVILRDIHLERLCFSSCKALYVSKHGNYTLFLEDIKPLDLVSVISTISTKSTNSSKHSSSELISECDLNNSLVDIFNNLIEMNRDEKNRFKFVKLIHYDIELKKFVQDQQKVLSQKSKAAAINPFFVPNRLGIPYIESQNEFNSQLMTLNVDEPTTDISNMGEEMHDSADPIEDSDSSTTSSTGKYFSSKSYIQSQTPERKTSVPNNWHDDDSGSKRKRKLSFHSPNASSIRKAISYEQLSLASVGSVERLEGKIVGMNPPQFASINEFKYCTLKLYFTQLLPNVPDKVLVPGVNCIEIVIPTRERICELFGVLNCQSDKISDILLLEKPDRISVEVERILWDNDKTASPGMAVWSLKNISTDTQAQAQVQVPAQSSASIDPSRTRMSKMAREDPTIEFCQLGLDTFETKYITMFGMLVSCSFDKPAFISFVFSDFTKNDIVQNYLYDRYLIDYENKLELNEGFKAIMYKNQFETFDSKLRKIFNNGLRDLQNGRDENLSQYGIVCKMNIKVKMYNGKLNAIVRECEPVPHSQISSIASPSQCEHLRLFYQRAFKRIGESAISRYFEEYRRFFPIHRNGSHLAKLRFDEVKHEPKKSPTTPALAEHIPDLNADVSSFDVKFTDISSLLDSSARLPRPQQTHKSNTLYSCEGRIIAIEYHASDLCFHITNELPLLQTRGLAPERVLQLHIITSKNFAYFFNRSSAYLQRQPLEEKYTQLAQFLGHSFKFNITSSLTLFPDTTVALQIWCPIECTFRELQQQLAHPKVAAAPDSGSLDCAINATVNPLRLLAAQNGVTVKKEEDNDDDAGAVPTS

T3: Cdc13-OB234 (Saccharomyces cerevisiae, UniProt P32797 341-924)
T3 sequence: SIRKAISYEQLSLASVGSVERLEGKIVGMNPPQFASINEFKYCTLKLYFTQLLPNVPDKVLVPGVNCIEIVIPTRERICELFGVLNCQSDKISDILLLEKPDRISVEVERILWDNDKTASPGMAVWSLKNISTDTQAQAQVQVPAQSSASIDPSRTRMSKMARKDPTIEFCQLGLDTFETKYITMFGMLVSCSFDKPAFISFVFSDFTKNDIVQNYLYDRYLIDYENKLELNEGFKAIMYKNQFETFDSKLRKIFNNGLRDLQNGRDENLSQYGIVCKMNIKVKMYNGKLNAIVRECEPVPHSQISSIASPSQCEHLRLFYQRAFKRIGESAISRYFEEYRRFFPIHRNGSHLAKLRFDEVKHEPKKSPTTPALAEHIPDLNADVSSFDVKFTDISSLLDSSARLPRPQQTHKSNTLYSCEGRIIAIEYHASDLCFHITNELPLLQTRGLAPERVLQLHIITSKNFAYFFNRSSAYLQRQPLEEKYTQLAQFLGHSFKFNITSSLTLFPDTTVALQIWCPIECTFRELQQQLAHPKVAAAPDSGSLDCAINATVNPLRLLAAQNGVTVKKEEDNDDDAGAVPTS


Assays:
Cdc13 [1] = biological target: T1, Cdc13; assay: EMSA
Cdc13-K504E = biological target: T2, Cdc13-K504E; assay: EMSA
Cdc13 [2] = biological target: T1, Cdc13; assay: EMSA; remark: listed apart in the source
SEC = biological target: the molecule itself; assay: SEC
Cdc13-OB234 = biological target: T3, Cdc13-OB234; assay: DNase I footprinting
Cdc13 [3] = biological target: T1, Cdc13; assay: DNase I footprinting
RPA = RPA (UniProt P22336;P26754;P26755 1-621;1-273;1-122); assay: EMSA
Chain of RPA (P22336 whole entry, chain 1 of 3): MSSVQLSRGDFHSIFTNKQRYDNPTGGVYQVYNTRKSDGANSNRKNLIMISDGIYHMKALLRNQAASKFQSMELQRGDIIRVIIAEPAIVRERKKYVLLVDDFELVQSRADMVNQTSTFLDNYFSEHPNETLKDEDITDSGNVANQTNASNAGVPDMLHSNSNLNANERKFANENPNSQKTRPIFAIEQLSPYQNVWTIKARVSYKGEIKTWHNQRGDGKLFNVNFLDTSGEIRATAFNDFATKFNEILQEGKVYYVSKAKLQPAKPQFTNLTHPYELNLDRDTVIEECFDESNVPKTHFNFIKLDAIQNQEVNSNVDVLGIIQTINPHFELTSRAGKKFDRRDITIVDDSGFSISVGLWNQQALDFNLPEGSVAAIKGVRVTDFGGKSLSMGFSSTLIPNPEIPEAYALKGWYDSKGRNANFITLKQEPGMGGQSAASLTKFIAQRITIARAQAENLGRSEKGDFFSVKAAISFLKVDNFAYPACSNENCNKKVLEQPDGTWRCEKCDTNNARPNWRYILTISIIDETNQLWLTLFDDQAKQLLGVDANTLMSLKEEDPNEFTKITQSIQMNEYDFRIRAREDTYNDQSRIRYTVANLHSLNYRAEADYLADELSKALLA
Chain of RPA (P26754 whole entry, chain 2 of 3): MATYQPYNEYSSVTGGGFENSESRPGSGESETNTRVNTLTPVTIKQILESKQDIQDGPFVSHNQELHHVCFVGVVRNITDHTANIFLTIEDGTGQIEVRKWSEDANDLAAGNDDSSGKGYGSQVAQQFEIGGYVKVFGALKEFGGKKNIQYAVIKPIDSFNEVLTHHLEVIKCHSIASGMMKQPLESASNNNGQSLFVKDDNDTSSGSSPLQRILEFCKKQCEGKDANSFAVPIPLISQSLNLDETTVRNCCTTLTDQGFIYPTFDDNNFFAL
Chain of RPA (P26755 whole entry, chain 3 of 3): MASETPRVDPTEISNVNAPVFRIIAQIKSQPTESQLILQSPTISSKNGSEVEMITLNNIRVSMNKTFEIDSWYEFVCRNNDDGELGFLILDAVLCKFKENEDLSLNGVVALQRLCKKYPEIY

Ku (Ku70-Ku80);Cdc13 = Ku (Ku70-Ku80);Cdc13 (Saccharomyces cerevisiae;Saccharomyces …, UniProt P32807;Q04437;P32797 1-602;1-629;1-924, |); assay: EMSA
Chain of Ku (Ku70-Ku80);Cdc13 (P32807 whole entry, chain 1 of 2): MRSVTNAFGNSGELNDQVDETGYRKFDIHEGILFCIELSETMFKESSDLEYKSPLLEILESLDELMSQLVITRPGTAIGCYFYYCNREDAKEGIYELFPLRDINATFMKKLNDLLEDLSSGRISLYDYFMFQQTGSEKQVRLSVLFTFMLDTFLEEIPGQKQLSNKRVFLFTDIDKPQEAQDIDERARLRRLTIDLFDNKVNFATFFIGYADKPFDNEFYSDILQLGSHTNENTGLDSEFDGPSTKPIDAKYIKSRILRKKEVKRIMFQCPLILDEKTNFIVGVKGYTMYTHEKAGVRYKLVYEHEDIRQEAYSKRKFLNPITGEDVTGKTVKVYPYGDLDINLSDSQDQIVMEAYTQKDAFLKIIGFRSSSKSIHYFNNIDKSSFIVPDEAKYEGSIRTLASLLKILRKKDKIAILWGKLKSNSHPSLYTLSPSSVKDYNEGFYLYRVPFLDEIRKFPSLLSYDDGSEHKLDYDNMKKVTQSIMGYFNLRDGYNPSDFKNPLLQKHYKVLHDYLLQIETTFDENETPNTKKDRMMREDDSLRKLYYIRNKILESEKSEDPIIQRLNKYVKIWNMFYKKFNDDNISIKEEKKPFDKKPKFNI
Chain of Ku (Ku70-Ku80);Cdc13 (Q04437 whole entry, chain 2 of 2): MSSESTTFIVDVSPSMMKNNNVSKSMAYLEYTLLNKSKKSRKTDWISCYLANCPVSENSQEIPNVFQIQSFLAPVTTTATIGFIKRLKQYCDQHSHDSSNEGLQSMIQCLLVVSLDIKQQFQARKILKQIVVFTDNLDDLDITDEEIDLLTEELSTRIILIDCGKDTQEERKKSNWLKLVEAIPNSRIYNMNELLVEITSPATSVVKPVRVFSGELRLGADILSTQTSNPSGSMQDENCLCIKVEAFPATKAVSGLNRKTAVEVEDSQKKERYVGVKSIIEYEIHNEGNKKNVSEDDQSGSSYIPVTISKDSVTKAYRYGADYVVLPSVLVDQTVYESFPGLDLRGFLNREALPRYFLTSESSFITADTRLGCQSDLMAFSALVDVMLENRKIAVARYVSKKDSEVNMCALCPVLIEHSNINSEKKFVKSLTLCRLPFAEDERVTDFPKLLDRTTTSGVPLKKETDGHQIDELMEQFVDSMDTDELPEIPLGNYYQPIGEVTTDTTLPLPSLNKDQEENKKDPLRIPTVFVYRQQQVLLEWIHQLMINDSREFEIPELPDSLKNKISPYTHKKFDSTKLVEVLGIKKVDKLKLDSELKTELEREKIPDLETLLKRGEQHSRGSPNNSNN

| Binder | binding result (Cdc13-K504E) | Kd (Cdc13 [2]) | other results |
| --- | --- | --- | --- |
| GTGTGGT (ssDNA) [ssTel7] |  |  | binding result (Cdc13 [1]): no binding |
| Tel14 (dsDNA) DNA 1: ATAATGATAAGACGTAGAGTGGGTGTGTGTGTGGGGTGGT DNA 2: ACACCCACTCTACGTCTTATCATTAT | binds | ~5 nM |  |
| Cdc13 (recombinant full-length, Cdc13-Flag) (natural protein, S. cerevisiae, UniProt P32797 1-924, looked up) MDTLEEPECPPHKNRIFVSSSKDFEGYPSKAIVPVQFVALLTSIHLTETKCLLGFSNFERRGDQSQEDQYLIKLKFKDRGSERLARITISLLCQYFDIELPDLDSDSGASPTVILRDIHLERLCFSSCKALYVSKHGNYTLFLEDIKPLDLVSVISTISTKSTNSSKHSSSELISECDLNNSLVDIFNNLIEMNRDEKNRFKFVKLIHYDIELKKFVQDQQKVLSQKSKAAAINPFFVPNRLGIPYIESQNEFNSQLMTLNVDEPTTDISNMGEEMHDSADPIEDSDSSTTSSTGKYFSSKSYIQSQTPERKTSVPNNWHDDDSGSKRKRKLSFHSPNASSIRKAISYEQLSLASVGSVERLEGKIVGMNPPQFASINEFKYCTLKLYFTQLLPNVPDKVLVPGVNCIEIVIPTRERICELFGVLNCQSDKISDILLLEKPDRISVEVERILWDNDKTASPGMAVWSLKNISTDTQAQAQVQVPAQSSASIDPSRTRMSKMARKDPTIEFCQLGLDTFETKYITMFGMLVSCSFDKPAFISFVFSDFTKNDIVQNYLYDRYLIDYENKLELNEGFKAIMYKNQFETFDSKLRKIFNNGLRDLQNGRDENLSQYGIVCKMNIKVKMYNGKLNAIVRECEPVPHSQISSIASPSQCEHLRLFYQRAFKRIGESAISRYFEEYRRFFPIHRNGSHLAKLRFDEVKHEPKKSPTTPALAEHIPDLNADVSSFDVKFTDISSLLDSSARLPRPQQTHKSNTLYSCEGRIIAIEYHASDLCFHITNELPLLQTRGLAPERVLQLHIITSKNFAYFFNRSSAYLQRQPLEEKYTQLAQFLGHSFKFNITSSLTLFPDTTVALQIWCPIECTFRELQQQLAHPKVAAAPDSGSLDCAINATVNPLRLLAAQNGVTVKKEEDNDDDAGAVPTS |  |  | stoichiometry N (SEC): 2 |
| L-Tel22 (dsDNA) DNA 1: TTCAGACAACAGTAGACTACAAGGATGACGACAAGATTAAGCTTTCTTATGTGGGTGTGTGTGTGGGGTGGTGTGTGTGG DNA 2: ACACCCACATAAGAAAGCTTAATCTTGTCGTCATCCTTGTAGTCTACTGTTGTCTGAA |  |  | binding result (Cdc13-OB234): binds; binding result (Cdc13 [3]): binds |
| Tel7 (dsDNA) DNA 1: ATAATGATAAGACGTAGAGTGGGTGTGTGTGTG DNA 2: ACACCCACTCTACGTCTTATCATTAT |  | ~20 nM |  |
| TGTGGGTGTGGTGTGGGTGTGG (ssDNA) [ssTel22] | binds |  |  |
| ds26 (dsDNA) DNA 1: ATAATGATAAGACGTAGAGTGGGTGT DNA 2: ACACCCACTCTACGTCTTATCATTAT |  | ~300 nM | binding result (RPA): no binding |
| Tel22 (dsDNA) DNA 1: ATAATGATAAGACGTAGAGTGGGTGTGTGTGTGGGGTGGTGTGTGTGG DNA 2: ACACCCACTCTACGTCTTATCATTAT | binds | < 2.5 nM | binding result (Ku (Ku70-Ku80);Cdc13): binds |
